These results are taken from article PMC2916881.

One test has as its target human fibrinogen (human) (UniProt P02671). Description: SPR; BIAcore 3000, CM5 chip; human prothrombin and human fibrinogen amine-linked, Coa or vWbp injected in HBS-P (20 mM HEPES pH 7.4, 150 mM NaCl, 0.005% P20), flow 2 uL/min; 1:1 binding model with drifting baseline and local Rmax (the legend of Figure S5 tells the opposite orientation). Background: Surface plasmon resonance follows binding to a sensor surface in real time, without labels.
Sequence of UniProt P02671 (P02671 36-866, chain 1 of 3): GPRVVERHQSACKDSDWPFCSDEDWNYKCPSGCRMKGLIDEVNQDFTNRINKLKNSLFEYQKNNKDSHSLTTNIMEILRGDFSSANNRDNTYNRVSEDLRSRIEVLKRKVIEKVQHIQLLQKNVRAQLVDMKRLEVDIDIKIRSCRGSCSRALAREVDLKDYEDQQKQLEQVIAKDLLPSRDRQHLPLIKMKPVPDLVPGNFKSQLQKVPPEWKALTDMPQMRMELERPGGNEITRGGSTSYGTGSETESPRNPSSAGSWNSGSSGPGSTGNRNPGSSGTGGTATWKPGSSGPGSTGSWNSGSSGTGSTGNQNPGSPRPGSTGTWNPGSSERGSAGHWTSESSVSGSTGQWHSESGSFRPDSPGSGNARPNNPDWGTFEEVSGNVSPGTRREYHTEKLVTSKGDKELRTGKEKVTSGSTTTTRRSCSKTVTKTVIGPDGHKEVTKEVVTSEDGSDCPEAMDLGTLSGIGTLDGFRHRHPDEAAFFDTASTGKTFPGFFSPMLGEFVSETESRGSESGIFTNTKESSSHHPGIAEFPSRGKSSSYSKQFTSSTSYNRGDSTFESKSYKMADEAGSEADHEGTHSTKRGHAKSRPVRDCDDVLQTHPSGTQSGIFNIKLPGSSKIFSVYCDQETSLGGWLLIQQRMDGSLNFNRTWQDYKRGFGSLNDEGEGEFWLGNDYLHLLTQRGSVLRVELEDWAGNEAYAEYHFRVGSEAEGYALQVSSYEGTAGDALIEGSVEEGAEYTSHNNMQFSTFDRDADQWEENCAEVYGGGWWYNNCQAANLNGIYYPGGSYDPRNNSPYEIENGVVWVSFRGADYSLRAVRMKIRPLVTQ
Sequence of UniProt P02671 (P02675 45-491, chain 2 of 3, further chain): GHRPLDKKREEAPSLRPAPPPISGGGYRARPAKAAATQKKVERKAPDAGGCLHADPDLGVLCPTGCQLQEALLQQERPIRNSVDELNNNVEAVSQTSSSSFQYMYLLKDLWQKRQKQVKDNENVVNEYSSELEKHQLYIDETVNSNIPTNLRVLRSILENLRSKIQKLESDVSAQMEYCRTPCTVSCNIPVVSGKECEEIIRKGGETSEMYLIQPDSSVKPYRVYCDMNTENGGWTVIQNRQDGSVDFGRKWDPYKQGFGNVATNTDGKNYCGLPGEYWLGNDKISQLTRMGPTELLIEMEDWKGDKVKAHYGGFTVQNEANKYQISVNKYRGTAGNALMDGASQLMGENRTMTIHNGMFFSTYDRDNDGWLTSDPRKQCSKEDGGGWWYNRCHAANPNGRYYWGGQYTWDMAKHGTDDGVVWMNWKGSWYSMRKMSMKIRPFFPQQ
Sequence of UniProt P02671 (P02679 27-453, chain 3 of 3, further chain): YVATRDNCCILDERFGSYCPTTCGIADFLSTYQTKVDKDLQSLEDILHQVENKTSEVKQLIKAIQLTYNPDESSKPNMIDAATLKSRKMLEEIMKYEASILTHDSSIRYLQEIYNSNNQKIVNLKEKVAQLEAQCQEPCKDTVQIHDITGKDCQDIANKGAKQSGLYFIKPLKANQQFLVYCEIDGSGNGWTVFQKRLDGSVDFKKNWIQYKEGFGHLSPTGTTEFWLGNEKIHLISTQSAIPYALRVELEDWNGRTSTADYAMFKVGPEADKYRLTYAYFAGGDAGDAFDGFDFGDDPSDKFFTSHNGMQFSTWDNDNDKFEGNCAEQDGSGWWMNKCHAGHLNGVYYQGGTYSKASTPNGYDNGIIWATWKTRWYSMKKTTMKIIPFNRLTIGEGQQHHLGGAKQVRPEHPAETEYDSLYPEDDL

Test [1] has as its target human prothrombin (human). Described as above.

For “S. aureus Newman Coagulase (natural protein)”, the Kd with human fibrinogen (human) amounted to 33 nM; in test [1], 5 nM.

For the substance “S. aureus Newman von Willebrand factor binding protein (natural protein)”, the Kd with human fibrinogen (human) worked out at 271 nM; in test [1], 98 nM.

By Kd is commonly meant the free concentration of one partner at which half of the binding sites on the other are occupied at equilibrium, for simple one-to-one binding. A lower Kd goes with higher affinity.
